Data on three molecules can be found in US20250171542A1 (ADEPT THERAPEUTICS, published 2025).

T1: BH-H2 (Sino Biological, Cat #11559-H08H) (UniProt O75144 19-258)
T1 sequence (looked up): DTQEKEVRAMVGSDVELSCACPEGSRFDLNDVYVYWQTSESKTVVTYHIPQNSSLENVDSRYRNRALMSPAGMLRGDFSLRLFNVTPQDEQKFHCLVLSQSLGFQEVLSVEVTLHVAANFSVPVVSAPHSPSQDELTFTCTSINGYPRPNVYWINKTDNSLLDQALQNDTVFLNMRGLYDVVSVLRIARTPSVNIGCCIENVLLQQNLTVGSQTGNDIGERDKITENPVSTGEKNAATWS

T2: CD80 (Sino Biological, Cat #10698-H08H) (UniProt P33681 35-242)
T2 sequence (looked up): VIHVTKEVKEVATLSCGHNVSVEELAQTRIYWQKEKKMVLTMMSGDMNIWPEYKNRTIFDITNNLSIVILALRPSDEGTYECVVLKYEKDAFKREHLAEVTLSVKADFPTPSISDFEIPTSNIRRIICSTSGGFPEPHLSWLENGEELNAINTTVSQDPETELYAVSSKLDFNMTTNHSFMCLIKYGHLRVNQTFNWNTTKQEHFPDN

T3: canine PD-L1 (Acro Biosystems, Cat #PDL-C52H4) (canine, UniProt E2RKZ5 19-236)
T3 construct: not shown: The vendor's tag, probably a polyhistidine tag
T3 sequence: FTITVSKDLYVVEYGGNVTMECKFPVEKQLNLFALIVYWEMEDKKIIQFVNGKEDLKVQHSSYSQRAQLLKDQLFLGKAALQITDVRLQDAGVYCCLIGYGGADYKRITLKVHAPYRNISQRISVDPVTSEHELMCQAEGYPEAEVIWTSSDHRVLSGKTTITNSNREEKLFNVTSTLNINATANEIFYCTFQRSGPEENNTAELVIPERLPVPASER

T4: CD86 (Sino Biological, Cat #10699-H08H) (UniProt P42081 24-245)
T4 sequence (looked up): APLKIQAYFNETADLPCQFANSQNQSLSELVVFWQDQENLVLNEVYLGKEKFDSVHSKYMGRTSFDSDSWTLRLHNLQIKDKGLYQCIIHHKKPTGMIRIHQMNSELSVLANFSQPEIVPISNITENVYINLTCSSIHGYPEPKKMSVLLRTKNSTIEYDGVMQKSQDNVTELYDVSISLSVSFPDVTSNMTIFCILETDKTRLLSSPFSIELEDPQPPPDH

T5: B7-H3 (Sino Biological, Cat #11188-H08H) (UniProt Q5ZPR3 29-461)
T5 sequence (looked up): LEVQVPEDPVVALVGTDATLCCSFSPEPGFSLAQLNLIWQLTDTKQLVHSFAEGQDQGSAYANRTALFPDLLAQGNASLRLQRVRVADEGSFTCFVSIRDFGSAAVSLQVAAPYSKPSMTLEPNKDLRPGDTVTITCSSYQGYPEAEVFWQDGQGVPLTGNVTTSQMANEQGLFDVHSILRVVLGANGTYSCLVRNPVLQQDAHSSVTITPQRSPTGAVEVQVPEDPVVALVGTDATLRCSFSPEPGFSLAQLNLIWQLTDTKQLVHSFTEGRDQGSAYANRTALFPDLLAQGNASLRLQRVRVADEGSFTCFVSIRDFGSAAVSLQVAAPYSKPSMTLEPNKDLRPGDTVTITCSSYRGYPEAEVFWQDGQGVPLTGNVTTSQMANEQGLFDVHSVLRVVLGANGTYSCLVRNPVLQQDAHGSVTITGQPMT

B1: 32E2 (antibody, human IgG1, V domains shown)
VH: QEQLEESGGDLVKPEGSLTLTCTASGFSFSSSYYMSWVRQAPGMGLEWIASISGGVTDNAYYASWAKGRFTVSKTSSTTVTLQLTSLTAADTATYFCARDSSSGYFFLLWGPGTLVTVSS
VL: LVMTQTPSSVSAAVGGTVTINCQASQNIYSNLAWYQQKPGQRPKLLIFGASNLRSGVPSRFKGSGSGTEYTLTISDLECADAATYYCQEGYSIGNVDNPFGGGTEVVVK
B2: 33E8 (antibody, human IgG1, V domains shown)
VH: QSLEESGGDLVKPGASLTLTCTASGFYFSSGYDMSWVRQAPGKGLEWIASIFTTSGSTWYANWAKGRFTISKTSSTTVTLQMTSLTDADTATYFCTKDGVGSFYMNLWGPGTLVTVSS
VL: LVMTQTPASVEVAVGGTVTIKCQASQTIGSNLAWYQQRPGQPPKLLIYKAFTLASGVSSRFKGSGSGTQFTLTISGVECADAATYYCQQGATRINIDNAFGGGTEVVVK
B3: 33H7 (antibody, human IgG1, V domains shown)
VH: QEQLVESGGGLVQPEGSLTVTCTASGFDLSRYFYMSWVRQAPGKGLEWIASISTGSDITDYASWAKGRFTISKTSSTTVTLQMTTLTAADTAIYFCARWTSGGGGFGLWGPGTLVTVSS
VL: QVLTQTASPVSAAVGGTVTLNCQSSQSIYNNYLSWYQQRAGQPPKLLIYSTATLASGVPSRFKGSGSGTQFTLTISEIQCEDAATYYCQGYYSGYIWTFGGGTEVVVK

T6 sequence (Q9NZQ7 19-290 limits assumed): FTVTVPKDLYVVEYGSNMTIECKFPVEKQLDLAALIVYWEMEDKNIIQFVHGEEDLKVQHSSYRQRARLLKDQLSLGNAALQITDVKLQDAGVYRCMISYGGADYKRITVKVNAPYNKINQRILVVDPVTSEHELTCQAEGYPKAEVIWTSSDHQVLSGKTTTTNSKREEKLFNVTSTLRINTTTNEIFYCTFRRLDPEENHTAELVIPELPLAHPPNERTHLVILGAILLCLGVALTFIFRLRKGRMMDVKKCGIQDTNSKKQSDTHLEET

The first assay has as its target T6, human PD-L1 expressed on cell surface (human, UniProt Q9NZQ7 19-290).
T6 construct: also called cell surface PD-L1
Description: flow cytometry, MDA-MB-231-GFP cells. In general terms: A flow cytometer gives signals particle by particle.
For B1, the EC50 (usually the concentration at which the effect is half-maximal) turned out to be 18.5 nM.

B2 displayed a concentration giving a half-maximal response (EC50) of 1.19 nM.

B3 registered an EC50 of 0.34 nM.

The next assay addresses T6, human PD-L1 expressed on cell surface. Description: cell-based or functional assay.
For B1, the “Internalization (%), FACS, 0.25 µg/ml, 2 h” value was found to be 2.2%; the “Internalization (%), FACS, 0.25 µg/ml, 4 h” value is -25.9%; the “Internalization (%), FACS, 0.5 µg/ml, 2 h” value is 0.4%; the “Internalization (%), FACS, 0.5 µg/ml, 4 h” value amounted to 5.6%. In addition, the “Internalization (%), FACS, 1 µg/ml, 2 h” value is 1.1%; the “Internalization (%), FACS, 1 µg/ml, 4 h” value was determined as 7.2%; the “Internalization (%), FACS, 2 µg/ml, 2 h” value was 2.4%; the “Internalization (%), FACS, 2 µg/ml, 4 h” value was determined as 7.6%.

With B2, the “Internalization (%), FACS, 0.25 µg/ml, 2 h” value turned out to be 20.9%; the “Internalization (%), FACS, 0.25 µg/ml, 4 h” value was found to be 21.6%; the “Internalization (%), FACS, 0.5 µg/ml, 2 h” value turned out to be 22.8%; the “Internalization (%), FACS, 0.5 µg/ml, 4 h” value is 25.8%. Besides, the “Internalization (%), FACS, 1 µg/ml, 2 h” value came out at 20.4%; the “Internalization (%), FACS, 1 µg/ml, 4 h” value amounted to 23.3%; the “Internalization (%), FACS, 2 µg/ml, 2 h” value worked out at 29.6%; the “Internalization (%), FACS, 2 µg/ml, 4 h” value worked out at 30.2%.

Regarding B3, the “Internalization (%), FACS, 0.25 µg/ml, 2 h” value turned out to be 15.2%; the “Internalization (%), FACS, 0.25 µg/ml, 4 h” value was determined as 12.3%; the “Internalization (%), FACS, 0.5 µg/ml, 2 h” value is 17%; the “Internalization (%), FACS, 0.5 µg/ml, 4 h” value came out at 14.2%. Besides, the “Internalization (%), FACS, 1 µg/ml, 2 h” value worked out at 14.4%; the “Internalization (%), FACS, 1 µg/ml, 4 h” value was found to be 12.4%; the “Internalization (%), FACS, 2 µg/ml, 2 h” value stood at 17.8%; the “Internalization (%), FACS, 2 µg/ml, 4 h” value stood at 12.6%.

The target in the next assay is T7, rat PD-L1 (Sino Biological, Cat #80450-R08H) (rat, UniProt D4AE25 19-239).
T7 construct: not shown: The vendor's polyhistidine tag
T7 sequence (D4AE25 entry or part of it R08H R08H limits assumed): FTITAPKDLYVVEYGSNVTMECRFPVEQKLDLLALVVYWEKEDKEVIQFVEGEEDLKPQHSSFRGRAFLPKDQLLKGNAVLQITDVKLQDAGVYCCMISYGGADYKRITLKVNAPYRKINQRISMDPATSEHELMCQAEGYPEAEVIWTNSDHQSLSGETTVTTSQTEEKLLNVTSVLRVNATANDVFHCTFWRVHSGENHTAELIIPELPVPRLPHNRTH
Description: ELISA. On the technique in general: In an ELISA, binding on a coated surface is turned into a signal by an enzyme label.
Turning to B1, the binding result is given as “no binding”.

In the case of B2, the binding result is “no binding”.

In the case of B3, the binding result was “no binding”.

Another assay deals with T1, BH-H2 (Sino Biological, Cat #11559-H08H). Description: ELISA.
In the case of B1, the binding result is “no binding”.

Consider B2, for which the binding result is given as “no binding”.

For the molecule B3, the binding result is “no binding”.

The target in a further assay is T2, CD80 (Sino Biological, Cat #10698-H08H). Description: ELISA.
Turning to B1, the binding result is on record as “no binding”.

For the molecule B2, the binding result is reported as “no binding”.

B3: the binding result was “no binding”.

A further assay has as its target T3, canine PD-L1 (Acro Biosystems, Cat …). Description: ELISA.
For the molecule B1, the binding result is reported as “no binding”.

On to B2, for which the binding result is recorded as “no binding”.

Consider B3, for which the binding result is reported as “no binding”.

The target in another assay is T4, CD86 (Sino Biological, Cat #10699-H08H). Description: ELISA.
Regarding B1, the binding result is given as “no binding”.

Regarding B2, the binding result is “no binding”.

B3: the binding result was “no binding”.

The next assay addresses T5, B7-H3 (Sino Biological, Cat #11188-H08H). Description: ELISA.
As for B1, the binding result is “no binding”.

Regarding B2, the binding result was “no binding”.

In the case of B3, the binding result was “no binding”.

A further assay deals with mouse PD-L1 (Sino Biological, Cat #50010-M08H) (mouse, UniProt Q9EP73 19-238). Description: ELISA.
mouse PD-L1 (Sino Biological, Cat #50010-M08H), sequence (Q9EP73 19-238 limits assumed, stated change not applied): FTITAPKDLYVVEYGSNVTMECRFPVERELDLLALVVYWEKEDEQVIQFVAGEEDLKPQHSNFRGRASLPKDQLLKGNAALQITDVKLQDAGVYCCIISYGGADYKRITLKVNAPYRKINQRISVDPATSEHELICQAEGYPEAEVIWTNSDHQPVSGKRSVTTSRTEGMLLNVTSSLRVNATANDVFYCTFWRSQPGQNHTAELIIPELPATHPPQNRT
With B1, the binding result was “no binding”.

For B2, the binding result is “no binding”.

Take B3: the binding result is “no binding”.

A further assay deals with T8, cynomolgus PD-L1-His (Sino Biological, Cat. 90251-C08H) (cynomolgus, UniProt Q9NZQ7 19-238 (human entry)).
T8 construct: Bought protein; also called Cyno PD-L1; Cynomolgus PD-L1 ECD-His; not shown: His tag
T8 sequence (Q9NZQ7 other isoform, or with tags, fused parts or gaps C08H C08H limits assumed): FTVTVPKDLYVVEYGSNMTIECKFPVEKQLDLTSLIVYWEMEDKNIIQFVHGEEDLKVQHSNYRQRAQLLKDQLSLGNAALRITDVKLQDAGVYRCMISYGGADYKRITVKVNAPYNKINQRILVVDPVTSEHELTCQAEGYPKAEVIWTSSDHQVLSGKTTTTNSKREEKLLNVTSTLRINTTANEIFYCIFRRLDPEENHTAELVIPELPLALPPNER
Description: ELISA, coated cyno PD-L1-His. The procedure, abridged:
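Plates coated overnight at 4 °C with 0.5 μg/ml His-tagged human or cynomolgus PD-L1, then BSA-blocked. Serially diluted antibodies bound 2 h at RT, detected with HRP secondary (1 h) and TMB, read at 450 nm after acid stop; anti-HEL isotype as negative control.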
In turn, B1 returned an EC50 of 0.179 nM.

As for B2, the midpoint of the response, the EC50, lay at 0.0414 nM. Against the preceding molecule, the EC50 is about 4.3-fold lower.

As to B3, the 50% effective concentration (EC50) was 0.013 nM.
